From the supplement of paper PMC9170038

Test system: MS2 coat protein
Test: apparent KD of MS2 coat protein; designed switch direction (-1 OFF switch, 1 ON switch): -1; higher = weaker reporter binding
In short: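 The reported apparent KD is a per-design median over clusters, from curve fits of normalised cluster fluorescence. Protein titrations used SNAP-549-labelled MS2 coat protein, doubled from 0.7 or 1.5 nM to 3 µM, in Tris-HCl pH 7.5 buffer with KCl, MgCl2, BSA, DTT, tRNA and Tween-20, with no input, 200 uM small-molecule ligand, or an oligonucleotide input. The RNA switches were transcribed on Illumina chips by stalled E. coli RNA polymerase.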

[1] = input ligand: microRNA oligo, concentration not stated
[2] = Eterna round: R95, input ligand: FMN 200 uM
[3] = Eterna round: R95, input ligand: none
[4] = Eterna round: R95, input ligand: microRNA oligo, concentration not stated

Row | Sequence | apparent KD of MS2 coat protein (input ligand: FMN 200 uM) [nM] | apparent KD of MS2 coat protein [1] [nM] | apparent KD of MS2 coat protein (input ligand: none) [nM] | apparent KD of MS2 coat protein [2] [nM] | apparent KD of MS2 coat protein [3] [nM] | apparent KD of MS2 coat protein [4] [nM]
1 | UUAAUUAAUUAAGCGCAAGAUCACAUGAGGAUCACCCAUGUAUAGGAUAUCAGCUCGUUUAGAGCUGAGAAGGAUACAUAGCGC [ExNG3/2-A2] (Eterna round: R96, puzzle: Exclusion NG 3) | 738 | 155 | 172 |  |  | 
2 | UAUUAGCAAGCAAGGUCCCACAUGAGGAUCACCCAUGUGCUCGUCUUAUAAGGUACUGUGACGAAAGUCACGGUACC [Sensor 3, v1 - 92] (puzzle: Sensor v3, turn-off variant 1) |  |  |  | 46.6 | 53.1 | 
3 | CCUCAUAUUUAGGAUAUGAUUGGUAAUUAUUAGUUAGAAGGAGGUACAUGAGGAUCACCCAUGUAAAAUUUUUU [-13.7, -10.8 kcal, 32% A] (Eterna round: R97, puzzle: Exclusion 6) | 19.7 |  | 19.6 |  |  | 
4 | CGAGCUGCUGUGAGGAUAUACCUGUGGGUGCGUGGGUAGAAGGCACAUGAGGAUCACCCAUGUCCUGCAGCUCG [salish99_bmx4_r4_105] (Eterna round: R97, puzzle: Brourd's mod of Exclusion 4) | 594 |  | 1060 |  |  | 
5 | GGAAGUAGAAACCGAUCCUACAUGAGGAUCACCCAUGUAGCAAGACGUGCACGCGAAGCUCGUCAGACUACCAGAAU [salish99_TOv1_r3_010] (puzzle: Sensor v3, turn-off variant 1) |  |  |  | 341 | 286 | 268
6 | AGCUGUGGCCGAGGAUAUACAUGAGGAUCACCCAUGUUACAUAAUUAGGCCUGGUAACAGGCUCCGUAGAAGGCGGUCUCAGCA [Eli eng2 - 005] (Eterna round: R96, puzzle: Exclusion NG 2) | 13 | 11.4 | 15.3 |  |  | 
7 | AGUACUAACACGAAAGUGUUAGUACAAUAAGCUUGUGAAACAUGAGGAUCACCCAUGUCCUCAUGAGCUCGUCUUAU [salish99_TOv2_r3_051] (puzzle: Sensor v3, turn-off variant 2) |  |  |  | 77.8 | 67.9 | 5.95
8 | AUAAGCUUUGAGAUCCUUAACAUGAGGAUCACCCAUGUUCGUCUUAUGAUGGUCUGAUCCCUGAGGAUCGGACCGUA [Mat - Sensor v3 - turn-off var 1 - JL Mod - D1] (puzzle: Sensor v3, turn-off variant 1) |  |  |  | 146 | 186 | 28.4
9 | UUAUAUAGAGUGAGGAUAUGCUGGUCCUUGGAUCAGCAGAAGGCACAUGAGGAUCACCCAUGUAAUAUAAUAUU [Mat - Exclusion 4 - JL Mod - D38] (puzzle: Brourd's mod of Exclusion 4) |  |  |  |  |  | 21.1
10 | GCAGCAACUCUAACCAACUAAACAUGAGGAUCACCCAUGUCUCAGGAUAUGGUCUGGAUUACAGGCCAGAAGGGAGAAAGCUGC [Eli exng3 - 042] (Eterna round: R96, puzzle: Exclusion NG 3) | 12.4 | 12.3 | 12.6 |  |  | 
11 | UUUUAACAUGAGGAUCACCCAUGUGAGGAUAUCGAAAUUUAUAUUAAUAUUUAUUAAUCGAGAAGGCACAUUUU [JMF 60] (puzzle: Exclusion 1) |  |  |  |  |  | 100
12 | AAAACGUGAGGAUAUCCAAUAUAUGACAUGAGGAUCACCCAUGUUUCCACUCGUACCUCCGGAGAAGGCACAAUUA [Ex5 #77] (Eterna round: R97, puzzle: Exclusion 5) | 46.4 |  | 43 |  |  | 
13 | AUACCACGAGGAUAUCGUCUAUAAUACAUGAGGAUCACCCAUGUUAUAUAUGUAAUGUUUCGAGAAGGCGUGUUUU [JR_E5_Sub082] (puzzle: Exclusion 5) |  |  |  |  |  | 14.7
14 | ACAUGAGGAUCACCCAUGUGCACGUAAUGGCUCAUGUAGAGAGAGGAUAUGUGUGACGAACGAGCACAGAAGGCUCAAGACUGG [Deportation 14 - Jieux - Exclusion NG 3] (Eterna round: R96, puzzle: Exclusion NG 3) | 202 | 133 | 179 |  |  | 
15 | AAGAAGAAGUAAGGAUAUGAAGAUUUGGUGAUAACAUGAGGAUCACCCAUGUGAAAACAAUAAAAUCAGAAGGUAUAAGAAGAA [AK ExNG2-2] (Eterna round: R96, puzzle: Exclusion NG 2) | 57.6 | 37.3 | 58 |  |  | 
16 | CUGAGAUCAGGAUAUACAUGAGGAUCACCCAUGUAAAGUAGCUUGCGUACAGGCAGAUGUAGAAGGGAUUUCGG [Mod of JL 5 - Jieux - Exclusion 3] (Eterna round: R97, puzzle: Exclusion 3) | 29.7 |  | 26.5 |  |  | 
17 | CUCGUGCAGCAAAGCUGUACGAGUACAUGAGGAUCACCCAUGUAGGAUAUGGUACGCAAAGCGUGCCAGAAGGACGUGAGUUAG [Mat - Exclusion NG 3 - Mod of JL - D95] (Eterna round: R96, puzzle: Exclusion NG 3) | 171 | 37.6 | 59 |  |  | 
18 | AAUAACAGAGGAUAUACUGUUUUAUGUGUUUAUUGUUUUGAACAUGAGGAUCACCCAUGUAGAAGGCUGAAUAA [JMF 25] (puzzle: Exclusion 2) |  |  |  |  |  | 20.1
19 | UAUUCUAGAUAGGAUAUACUUUUUUUUUUUUUCGUAGAAGGAUCUACAUGAGGAUCACCCAUGUUUUCAGCAGU [JR_E6_Sub012] (puzzle: Exclusion 6) |  |  |  |  |  | 48.3
20 | ACAUGUCAUCGAGGAUAUUGGACACAUGAGGAUCACCCAUGUACCCGGAGGCUCUACUAUGAGUUCGAGAAGGCGAUGUACAUG [Ex NG2 #74] (Eterna round: R96, puzzle: Exclusion NG 2) | 169 | 19.5 | 25.6 |  |  | 
21 | UUUUGGCAGGCUAUUAUUAACAUGAGGAUCACCCAUGUGCAUCCAAAAUUACUUUUAGAUCUUGCUGGUCUUAUAUA [JR_STOV1_Sub085] (Eterna round: R97, puzzle: Sensor, turn-off variant 1) | 284 |  | 330 |  |  | 
22 | UGUGUCUCAGGAGGAUAUCUCUCGGUUGCCGUUAGAGAAGGCUUGAAACAUGAGGAUCACCCAUGUAAAUGGCCCGUCCUCCAA [Lalecetege] (Eterna round: R96, puzzle: Exclusion NG 1) | 12.2 | 11.3 | 14.1 |  |  | 
23 | UAUAUGCAAGCGAGAUCCCACAUGAGGAUCACCCAUGUAAUAAAUAAGCACAGAAUUACUGUGAAAGCUCGUCUUAU [Winner reversed engineered 37] (Eterna round: R97, puzzle: Sensor, turn-off variant 1) | 92.5 |  | 105 |  |  | 
24 | GAGGUGUUAGGAUAUCGGAGAUGGAGAAGAACGGGAAGAGCCGAGAAGGAACAUGAGGAUCACCCAUGUAGGUG [JR_Exclu4_Sub030] (puzzle: Exclusion 4) |  |  |  | 326 | 696 | 270
25 | UGCCCAGCAGGAUAUACAUGAGGAUCACCCAUGUCGAUUCAGUACGACUUAGUGCAACGUAGAAGGGCUGGGCC [Eternabot (L1) Solution 84] (Eterna round: R97, puzzle: Exclusion 3) | 405 |  | 39.5 |  |  | 
